In patent EP4755920A1 (Simcere Pharmaceutical Co., Ltd., dated 2026):
Like-named read-outs stand apart in the source and are kept apart here.

Tests used:
[1] = biological target: T1, hIL4Rα-ECD(26-232)-mFc (human); test: competition ELISA, hIL4R-ECD-mFc captured by anti-mFc, biotinylated human IL4 as competitor
T1 construct: also called IL4Rα-ECD protein

[2] = biological target: T2, hIL4Rα-ECD(26-232)-His (human, UniProt P24394 26-232); test: SPR (Biacore 8K), antibody captured on Protein A, antigen as analyte, 1:1 model
T2 construct: Labelled with biotin (NH2-reactive) for the ELISA; unlabelled as analyte in Biacore; also called hIL4Rα-ECD-His

[3] = biological target: T2, hIL4Rα-ECD(26-232)-His; test: as above; remark: listed apart in the source

| Binder | IC50 [1] [nM] | Kd [2] [nM] | koff [2] [s⁻¹] | kon [2] [M⁻¹ s⁻¹] | Kd [3] [nM] |
| --- | --- | --- | --- | --- | --- |
| IL4R-CHI-18 (antibody, V domains shown, Chimeric IgG: murine variable regions on human IgG4 CH1-CH2-CH3 and human kappa constant regions; also called anti-IL4Rα chimeric antibody 18) VH: QVQLKQSGPGLVQPSQSLSVTCTVSGFSLTNYGVHWVRQSPGKGLEWLGVIWSGGSTDYNAAFKSRLSISKDNSKSQVFFKMNSLQADDTAIYYCARNKGTRPVFDYWGQGTTLTVSS VL: DIQMTQSPASLSASVGETVTITCRASENIYSYLAWYQQKQGKSPQLLVYNAKTLAEGVPSRFSGSGSGTQFSLKINSLQPEDFGSYYCQHYVSPLTFGAGTKLEVK | – | – | – | – | 0.0943 |
| IL4R-CHI-04 (antibody, V domains shown, Chimeric IgG: murine variable regions (from hybridoma IL4R-SFM-04) on human IgG4 CH1-CH2-CH3 and human kappa constant regions; also called anti-IL4Rα chimeric antibody 04) VH: DVQLQESGPGLVKPSQSLSLTCTVTGYSITSDYAWNWIRQFPGNKLEWMGYISYSGSSSYNPSLKSRISITRDTSKNQFFLQLNSVTTDDTATYYCAGGGLRRRGLFDYWGQGTTLTVSS VL: QIVLSQSPAILSASPGEKVTMTCRATSSVTYMHWYQQKPGSSPKPWIYATSNLASGVPARFSGSGSGTSYSLTISRVEAEDTATYYCQQWSSIPLTFGAGTKLELK | – | – | – | – | 0.513 |
| IL4R-hum-04H7L1 (antibody, V domains shown, also called humanized antibody of IL4R-CHI-04, H7 + L1) VH: EVQLQESGPGLVKPSETLSLTCTVSGYSISSDYAWNWIRQPPGKGLEWIGYISYSGSSSYNPSLKSRVTISVDTSKNQFSLKLSSVTAADTAVYYCARGGLRRRGLFDYWGQGTTVTVSS VL: DIQLTQSPSFLSASVGDRVTITCRATSSVTYMHWYQQKPGKAPKPWIYATSNLASGVPSRFSGSGSGTEFTLTISSLQPEDFATYYCQQWSSIPLTFGQGTKLEIK | 1.52 | 0.233 | 0.000445 | 1.91e+06 | – |
| IL4R-CHI-07 (antibody, V domains shown, Chimeric IgG: murine variable regions on human IgG4 CH1-CH2-CH3 and human kappa constant regions; also called anti-IL4Rα chimeric antibody 07) VH: QVQLQQSGAELVKPGASVKLSCKASGYTFTEYTIHWVKQRSGQGLEWIGWFYPGRGSIKYNEKFKDKATLTADKSSSTVYMELSRLTSEDSAVYFCTRHEYRGSNYAMDYWGQGTSVTVSS VL: DVLMTQTPLSLPVSLGDQASISCRSSQSIVHSSGNTYLQWYLQKPGQSPKLLIYKVSNRFSGVPDRFSGSGSGTDFTLKISRVEAEDLGVYYCFQGSHVPPTFGGGTKLEIK | – | – | – | – | 0.294 |
| IL4R-CHI-13 (antibody, V domains shown, Chimeric IgG: murine variable regions on human IgG4 CH1-CH2-CH3 and human kappa constant regions; also called anti-IL4Rα chimeric antibody 13) VH: EVQLQQSGPVLVKPGASVKMSCKASGYTFTDYYMNWVKQRHGKSLDWIGTINPYNGGTGYNQKFKGKATLTVDKSSSTAYMELNSLTSEDSAVYFCARSLLRRRGAMDYWGQGTSVTVSS VL: DIVLTQSPASLVVSLGQRATISCRASKSVSTSGYGYIHWYRQKPGQPPKLLIYLVSNLESGVPARFSGSGSGTDFTLNIHPVEEEDAATYYCQHIRELYTFGGGTKLEIK | – | – | – | – | 0.0779 |
| IL4R-CHI-14 (antibody, V domains shown, Chimeric IgG: murine variable regions on human IgG4 CH1-CH2-CH3 and human kappa constant regions; also called anti-IL4Rα chimeric antibody 14) VH: EVMLVESGGGLVKPGGSLKLSCAASGFTFSSYAMSWVRQTPEKRLEWVAIISGGGDSTYYPDSVKGRFTISRDNAKNTLYLQMSSLRSEDTALYFCARLHYWYFDFWGTGTTVTVSS VL: DIQMTQSSSSFSVSLGDRVTITCKASEDLYNRLAWYQQKPGNAPRLLISGATSLETGVPSRFSGSGSGRDYTLIITSLQTEDVATYYCQQYWRNPYTFGGGTKLEIK | – | – | – | – | 0.097 |
| IL4R-CHI-17 (antibody, V domains shown, Chimeric IgG: murine variable regions on human IgG4 CH1-CH2-CH3 and human kappa constant regions; also called anti-IL4Rα chimeric antibody 17) VH: QAYLQQSGAELVRPGASVKMSCKASGYTFTSYNMHWAKQTPRQGLEWIGSIYPGNGDTSYNQKFKGKATLTVDKSSSTAYMQLSSLTSEDSAVYFCARGGRLRRGDWFAYWGQGTLVTVSA VL: DIQMTQSPASLSASVGETVTITCRASENIYSYLIWYQQKQGKSPQLLVYDAKTLAEGVPSRFSGSGSGSQFSLKINSLQPEDFGTYYCQHHYGTPLTFGGGTKLELK | – | – | – | – | 0.289 |

The remaining lines, values ahead:

| IC50 [1] [nM] | Kd [2] [nM] | koff [2] [s⁻¹] | kon [2] [M⁻¹ s⁻¹] | Kd [3] [nM] | Binder |
| --- | --- | --- | --- | --- | --- |
| 1.92 | 0.0692 | 9.25e-05 | 1.34e+06 | – | IL4R-hum-13H1aL2a (antibody, V domains shown, also called humanized antibody of IL4R-CHI-13, H1a + L2a) VH: EVQLVQSGAEVKKPGASVKVSCKASGYTFTDYYMNWVRQAPGQRLEWMGTINPYNAGTGYNQKFKGRVTITVDKSASTAYMELSSLRSEDTAVYYCARSLLRRRGAMDYWGQGTTVTVSS VL: DIVLTQSPDSLAVSLGERATINCRASKSVSTSGYGYIHWYQQKPGQPPKLLIYLVDNLESGVPDRFSGSGSGTDFTLTISSLQAEDVATYYCQHIRELYTFGGGTKVEIK |
| 1.41 | 0.315 | 0.000468 | 1.48e+06 | – | IL4R-hum-07H1L3 (antibody, V domains shown, also called IL4AR-hum-07H1L3; humanized antibody of IL4R-CHI-07, H1 + L3) VH: EVQLVQSGAEVKKPGSSVKVSCKASGYTFSEYTIHWVRQAPGQGLEWMGWFYPGRGSIKYNEKFKDRVTITADKSTSTAYMELSSLRSEDTAVYYCTRHEYRGSNYAMDYWGQGTTVTVSS VL: DIVMTQSPDSLAVSLGERATINCRSSQSIVHSSGNTYLQWYQQKPGQSPKLLIYKVSNRFSGVPDRFSGSGSGTDFTLTISSLQAEDVAVYYCFQGSHVPPTFGGGTKVEIK |
| 2.2 | 0.154 | 5.07e-05 | 329000 | – | IL4R-hum-14L2H2 (antibody, V domains shown, also called humanized antibody of IL4R-CHI-14, L2 + H2) VH: EVQLVESGGGLVQPGGSLRLSCAASGFTFSSYAMSWVRQAPEKRLEWVAIISGGGDSTYYPDSVKGRFTISRDNAKNSLYLQMNSLRAEDTAVYYCARLHYWYFDFWGQGTTVTVSS VL: DIQMTQSPSSLSASVGDRVTITCKASEDLYNRLAWYQQKPGKAPKLLISGATSLETGVPSRFSGSGSGRDFTLTISSLQPEDFATYYCQQYWRNPYTFGGGTKVEIK |
| 2.39 | 0.0763 | 0.000151 | 1.98e+06 | – | IL4R-hum-18H5L1 (antibody, V domains shown, also called humanized antibody of IL4R-CHI-18, H5 + L1) VH: EVTLKESGPVLVKPTETLTLTCTVSGFSLTNYGVHWIRQPPGKALEWLGVIWSGGSTDYNAAFKSRLTISKDNSKSQVVLTMTNMDPVDTATYYCARNKGTRPVFDYWGQGTTVTVSS VL: DIQMTQSPSSLSASVGDRVTITCRASENIYSYLAWYQQKPGKAPKLLIYNAKTLAEGVPSRFSGSGSGTDFTLTISSLQPEDFATYYCQHYVSPLTFGQGTKLEIK |
| 1.82 | 0.283 | 0.000302 | 1.07e+06 | – | IL4R-hum-17L1H4 (antibody, V domains shown, also called humanized antibody of IL4R-CHI-17, L1 + H4) VH: EVQLVQSGAEVKKPGASVKVSCKASGYTFTSYNMHWARQAPGQRLEWMGSIYPGNGDTSYNQKFKGRVTITVDKSASTAYMELSSLRSEDTAVYYCARGGRLRRGDWFAYWGQGTLVTVSS VL: DIQMTQSPSSLSASVGDRVTITCRASENIYSYLIWYQQKPGKSPKLLIYDAKTLAEGVPSRFSGSGSGTDFTLTISSLQPEDFATYYCQHHYGTPLTFGGGTKVEIK |
